The values below come from a protein production outcome set (Wang et al. 2014).

The data set is described as follows: label from the status in PepcDB records.

Take “MNDTLLTTYTLAEGLHWLDLIGVLAFAMSGALLGVRKRFDLFGVLVLGAVTAVGGGAIRDSLTGQTPPLFLRDETYLWTALLGALLAFAFGERLARFERTLSLFDSAGLALFATSGALGAIKIGLGPLGVVFAGMLSGVGGGIIRDLIANEVPEVMYRRDQLYATAAAAGAGAVWLLAPHFTPFQAQAGGALLVLFLRWVSRRQWVRLPVRRLPE”: the protein production entry was “failed”.
As to “MNEEKQQELLISVIITNYNYDQFIDQAIESVLSQTYYNFELIIVDDGSTDNSRDVISSYTDSRIKALVKNNGGQASAFNAGFEQANGEIICFLDSDDWWKPEKLETIIRWHYFINKDYAIFQHVLDVWYEGKTRPYKHILPSGDCFAEMKKVKKLDFFVPTSGLSFPKKILDRIFPIPIKFIIAADSYIMRTACVFNMVYSIPKSLGFYRQHDNTVFLNPDFDLQPFLKEILIPELNQFYQKYRINYQIEISDYNFNERKKNKKQKIFEYLKKVFFLEHHHHHH”, the protein production entry is “failed”.
As for “MNEFMEPLDRISAETLGHYERNAEAFFEGTRDHDVSQNIAALLSHIRTEPPFTVLDFGCGPGRDLKAFTELGHRAVGLDGAFRFVEMARDYSGCEVWHQDFLKLDLPEEHFDGIFANATLFHVPSRELPRVLGELRAALKPEGVLFASNPRGRNEEGWNRGRYGVYHDLDTWRRFLTSAGFLELEHYYRPAGLPRDQQPWLASVWRRTLEHHHHHH”, the entry is “not failed”; as for “MNEIITWILIVICLTQSAVFSGLTIGIFGLGRLRLEIEAEANNKNAIKILQVRRDSNFLLTTLLWGNVGVNVLIAQLTDSVMAGTFAFLFSTFGITCFGEIMPQAYFSRNALDIGAKLTPLVRFYQMLLYPVAKPTALVLDWWLGREKLELFREQAMRIMLEKHIESGKTDIGTFEGIGALNFLSIDDVSISDEGSIIDSRSIISLPVENNRPVFPPFNREPSDPFLQKIEASGKKWVIITSPENEPVMVLDADGFLRDAVYKKGPFLPLIYCHFPVVVKSPETRLEKVIRQFKVYPQYPEDDVIDQDLILYWGEEKRIITGSDILGRLLRGIVVECELGSGCEIPVPPSQPGFVRRTAFRRGKKKEIENLKRK”, “not failed”.
For “MNEISVVLPAYNEEENIQKLVKRWQQLCKDLKYKYELSLNIFVIDDGSKDKTEVIGRELERKYDNFYLIKHDKNKGLGEAINTGIKYVMEKRSDSKYVCIMDCDNTQDPRYVFSMIEKMEKTDVVIASRYQKGSCVKGVPFFRLTASYGARFVYTIFLGVKNVRDYTCGYRLYRTSALKTAFKVFGESFIEESGFTCMVELLYKLNICGAVFKEVPFTLRYDFKGGVSKMKVLITAINSVKLTLRLKKIRKGVEPVLEDLEHHHHHH”, the protein production entry is on record as “failed”.
As to “MNEKSFNYDFSVIMPIYNVELYLTEAIESIINQTIGFENIQLILVNDDSPDKSEIICKEYAQKYPNNIVYAKKQNGGVSSARNYGLKYAEGRYIQFLDPDDLVSEGTFENVLNFFDEHKNEIDIVAIPIFFAEGRTGEHNLNNKFSSTRILDVEKEPHHILTHCCSTFIKKDALKNIRFDENCKIGEDAKLVNLIISQKKKYGLVKEAKYHYRVREDGSSAMQTAKANKNWFNHSLITFSKNLIDIIKNHEQKIPLFLQYMVMHDLKWKLLIKDISETPLDENEYSEFLTLIREVLSYIDDDVIIETKSVSHFYLYHALKIKHGENYSRYVYERETEQDYYLYREGKIVSKLSDQTLTIEILEENEDSIHIEGFWSSLFNSKGFKFYAKIGETKIKAKNIKRQHNDYISLGEVIKKYPGFSIDIPKGHLADNHHIEFFITKGKKRKLTKLRFFKYSGLSNDLYNTYVAKKDYIFYYNYKKLMFKKNNFKNRFIKEFRFLKSLHKSGEKSKKRKSAIKKALMARMVHHVFTIFNRKPVWLFIDRQDKADDNAEHLFKYAINKNDGVKKYFIIKKDSKDYDRIKKYGKVIPYRSFRHKILTLSSSKVISTHADIWVVNPFFNMEIYFRDLFNFEFIFLQHGITMADHSEWLNKYNKNIKLLVTSAKPEYRSIVKGNYNYKKENILLGGFPRYDNLKKSEGEKQLLIMPTWRKDIVLPKDQAKGVRPYNPKFKDSEYFSRYNALINDERLIEFAKKNNYKITFFPHPDIQQQIVDFEKHDYVEFADYNSSYQMLFNSSNIMITDFSSVAFDFAYEKKPVIYYQYEKSYHFKLDYYDYKKMGFGDVLENHNSLVDKVIYYMKNNSRMEDKYRKRVDNFFAYTDKNNRNRIYNAILELDNNKVAK”, the protein production entry was “failed”.
On to “MNELFDAKESLSPAEREDSLFQRLPTLIENAKANSEHYGNIFSGIDASIASNREGLAQFPITRKFNVPSQQQLKPPFGGLNSVAIGQMARVFQSPGPLYEAQTDESDFWRMGRAFHAAGFRRGDLVHNTLSYHFSPGGFIMDGGARACGCAVFPAGVGNTEAQIEAIKQLQPTGYTGTPSYLLTLLQKYQEQYGELPSFTKALVSGEAVTADMQQAFTDKGIAVFQAYASAELGLIAYQVAGEQGLVIGEDIIVEIVDPDGMPVPPGEVGEVVVTSLDEKFPLIRYATGDLSAYIENDANSPYTNMRIKGWMGRADSAVKVKGLFVYPHQIQEVCRRHEITGSLKIERDGFNDTITFCCHDVHVSAEDIQATLQSVTKLKGNVQFVANDADQPLINDLRS”, for which the protein production entry is “failed”.
With “MNEPLSSLELLPEEEGGANLTYFAFAAPTASAPDLPAVLPGPLPDVLSGRYRLERMLGAGGMGTVYRARDLLHEQFGDPAPLVALKLLNESVAESPDASALLYSEFALTRRLRHPNVVRLFTFDVDTACQRAYIVMELMPGLPLDRLLCERPEGLPWSELSAIARPLLDVLAYVHEQGVLHGDLKPSNVMLGEEGVRLFDFGLGQAQAGILDGLPQLSRGRIDAWTPGYAAPELLEGAPLSPAADLYALACVLYELADGRHPFRRLPSNQAREQGLERQLRAPRHLPRRCWPALRTALSLDPERRCIGVRELQEALGARRSWLAGVLAR”, the protein production entry is “failed”.
For “MNEQPNNENITQSASRDLQIIEDDAFSYEGYQVVRGEFFAHTYEPSFTFNANKVSVNTACIKKLPQTDFVQILVNPDEKKLAVRPCQEDEKDSFRWCSATKKRSPRQITCRIFFAKVISLMEWNPSYRYKLLGKLIRSDNELLFVFDLTTPEIYVRAEKEDGKIKTSRTPTYPAEWQNQFGVPVEEHQSNLQINMFDGYAVFGILEHHHHHH”, the protein production entry is reported as “not failed”.
As for “MNETEFYAYHIVTRKKMHIGQMIPFNKNQHNTLYHFFFEREQLNANGEDGIQILNNHYKNDELHINNENAKVVISYMDQTIRAARETIVEMVRLQEFPEYPSRLSCLYAAKSYEDALKWKALFDSYNREVLQIVKLRVIGSSFEGDGNLLPKEDGIPFSQKIEQARKYWKGNIRNELPELLINGEIEVVEIIDDFSSIHI”, the entry is “not failed”; as for “MNETINYDSLLILSVVAFFTPFLVSRLKRVNIPYQVGEIFIGILLGKSFLNIIKPDIWILFLSNLGLAYLMFLSGLAIDFDELKPKEGELLKDSKLFTSIKMFIVSIITAIILSFTLKFAGISEGYIFFALLFTAAAPGLLVPILKTKHIINSSYGQTLLVFGIITQLVSLIGVTFVASVAVNGITLKSFTFLIIFAVAIVVYFLSKIIFKVHDFSTIAFKNLHLSVRGAFVLVLVLVAVAEKVDSEIILGSFLAGMVFSLIVGKAKEEISHQLDVVGYGFLIPIFFIMVGVNVDLKAVVENPQSIAKIPLFILIFFLVKFIPSLLLKKKYGKRNSLAASMLLTAQLSLVIVGSQMALNLGYITAADYSAFVVTTVITCIFFPILFEKLITLNGDTNDTVEEDEKIIIREVLVSSQWYIGKALKDCKLPTGCRIFSMVRDDHEFMPNANTILEENDLVILAGVKHDVNETLNMLSTCDLTLPEE”, “failed”.
For “MNEVKAVWIRQWFPGLYQFKDYQRGWLTDDVRAAFSVVAVALPVAIAYAQLTGVPAIVGLYSCVLPMLVYALMGTSRQLIVGPDAATCAVIAAVVTPLAAGDTTKHWQLVMTMTAMTGFWCILASRLKLGIFADFLSRPILLGLLNGVALTIIVGQFAKVLGLKYEKRYLLERIVEAPELLYSLHWQTLGLSALTLAIYLVIKRWQPRWPAAMFAIMVAALLVWALNLESVGVQVVGVIQGGLPEFQAPAFDLGISRELVMPALNLAMVSFVSMMLTARSFAAKNGYDIDADKEFRALGVANVAAAFSQGFAISGADSRTAVNDANGGKSQLVSVIAALFIALVAVFAYQPLQFIPVAALGVVLIIASLSLLDLKGVWNLRKRDKDAFYLALITFIAVLVIGVIPGITLAVLLGLFQFLKLVMRPTDQMMGLDEEGTLRTLDGSEKAKPIPGMVIFRFNSPLTYFNAPYFKRRILDQTEREGAQVGCVIIDAVASFTHLDLSVMAMLADLHGILKKRGIRLILAGRKRSLRHWCDLTGINTAEGGIVLRADMYLAIKLSGCYLSAMEEGHVPVVQKEPDISVLLKPTTTEVA”, the protein production result was “failed”.
With “MNFDRTFLTFLGVIMLVHLHIFFAFLSLALLVIRGAMQLNGKNWRSIKLLKILPHLSDTLLIVSGVVILYLFAFGIEWWLVAKFALLILYIVFAAKFFSKKVSQPKSIFFWLACVSFIGAMLIAYLK” the entry was “failed”; with “MNFELSSPFSPTGDQPEAIAALSDGIKSGVPFQTLLGVTGSGKTFTIANVIKEVRKPTLILSHNKTLAAQLYSEFKAFFPNNAVEYFVSYYDYYQPEAYLPTTDTYIEKDLQINDEIDKLRLRATASLLSGRKDVIVVSSVSCLYGMADPTAFAEKVVHLEKGMRIDRDKLLRRFVDALYVNNKIEFNRGCFRVNGDTVDIFPAIETFDGAAYRIEFWDDEVDRISSFDPQTGQEIDEQDELNIYPTNLFVTTQERINTAIGQIDVDLGTQVNFLREIGKPYEAKRLYERVTFDLEMIRELGHCSGIENYSRYFDGRQAGERPFCLLDYFPKDFLLVVDESHVTIPQIRAMYGGDYSRKKNLVDYGFRLPAAMDNRPLTFDEFESLTPLAIYVSATPADYELEKSEGIVVDQVIRPTGLLDPVIEVRPTLNQIDDLMEEITQRAAVDERVLVTTLTKRMAEELTAYLTRMGIRCNYIHSDVDTLERIQIMDDLRKGLFDVLIGVNLLREGLDLPEVSLVAILDADKEGFLRSHRSLTQTAGRAARNVNGKVIFYADKITDSMRLTMDETARRREKQLAYNEKHGITPKQVIKNSVSLVAEKQQPVTGEPYAYVEPEPSLVADPVVQYMNRKQLEKAIERTKKQMMEAAKKLDFIEAAQFRDELVKLEDLLVTKKD”, “failed”; with “MNFGTQIKMIRKENQLTQEQFGNQLNISRQTVSTWENNRYLPDIEMLVEIAKTFNLSLDDLILGNSVVKDKLVNDTKFVKRIRLSILSMIFILIAIVSALLFTSLPSHVSQDGVLQEPWFLVILAFFSLLTGLIIGMVNLVLIFINYYKYARRRK”, “failed”.
Regarding “MNFKLNNTLSNEINTLIIGIPEHLNQLERISFNHIDITESLERLKHQHIIGSKVGKIYTTAFDVQDQTYRLITVGLGNLKTRSYQDMLKIWGHLFQYIKSEHIEDTYLLMDSFISKYDQLSDVLMACGIQSERATYEFDHYKSSKKAPFKTNLNLISESLIELDFIHEGISIGQSINLARDFSNMPPNVLTPQTFAEDIVNHFKNTKVKVDVKDYDTLVSEGFGLLQAVGKGSKHKPRLVTITYNGKDKDEAPIALVGKGITYDSGGYSIKTKNGMATMKFDMCGAANVVGIIEAASRLQLPVNIVGVLACAENMINEASMKPDDVFTALSGETVEVMNTDAEGRLVLADAVFYANQYQPSVIMDFATLTGAAIVALGDDKAAAFESNSKVILNDILQISSEVDEMVFELPITATERASIKHSDIADLVNHTNGQGKALFAASFVTHFSGQTPHIHFDIAGPATTNKASYNGPKGPTGFMIPTIVQWLKQQ”, the protein production result is listed as “not failed”.
Regarding “MNGDDDAKRSGKRLPDQPAKTQRTKGPVSFPSTVSLASLCEEGATASSNLDLLASCSSVQGSEDCDCEGHQPESERRLKRPRQAPWAAEPANQRRPPFDHGNSESIPPAGVQSQGTSASNGTDSSERKSTEATWSRQSVDCSTAEKLAGNLCANQVSAERSGQFYTKVNELLHDLHKERVSRQCRSPHES”, the protein production result is listed as “failed”.
Regarding “MNGDFYVDTTCIDCDTCRWMTPEVFHRVDEMSAVYHQPTNETERLAALQALLSCPTSSIGTVEKLEHHHHHH”, the protein production result is given as “failed”.
